T1: mouse CACNG1 expressed on cells (mouse, UniProt O70578 1-223)
T1 sequence (looked up): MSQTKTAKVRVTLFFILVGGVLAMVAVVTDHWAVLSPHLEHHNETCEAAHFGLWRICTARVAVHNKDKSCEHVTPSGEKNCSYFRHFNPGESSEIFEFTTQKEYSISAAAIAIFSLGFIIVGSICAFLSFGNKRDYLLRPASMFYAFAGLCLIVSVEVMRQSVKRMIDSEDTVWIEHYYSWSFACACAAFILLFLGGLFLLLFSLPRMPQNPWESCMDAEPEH


How the values were obtained:
[1] = biological target: T1, mouse CACNG1 expressed on cells; assay: cell-based or functional assay
[2] = biological target: T2, human CACNG1 expressed on cells (human, UniProt Q06432 1-222); assay: cell-based or functional assay
T2 sequence (Q06432 whole entry): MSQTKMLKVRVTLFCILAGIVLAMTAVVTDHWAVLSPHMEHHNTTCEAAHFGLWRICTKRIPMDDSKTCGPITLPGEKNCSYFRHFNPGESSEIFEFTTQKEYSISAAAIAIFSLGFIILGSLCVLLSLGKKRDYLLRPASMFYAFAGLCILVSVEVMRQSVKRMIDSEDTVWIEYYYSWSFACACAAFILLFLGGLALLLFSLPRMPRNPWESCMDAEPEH

[3] = biological target: T1, mouse CACNG1 expressed on cells; assay: imaging cell binding, HEK293/mCACNG1
Description: (§1) HuSKM were seeded in collagen-coated 96-well plates (Greiner Bio-One #655956) at 8,500 cells/well and grown for 24 hours. The growth media was changed to MyoTonic Differentiation Media (Cook Myosite Cat #MD-5555) and replaced every 2 days. Myotubes were assayed after 6 days of differentiation. C2C12 mouse myoblasts were maintained in DMEM with 10% FBS and 1% penicillin-streptomycin supplement and grown in a 37° C. incubator with 5% CO₂. C2C12 cells were seeded in collagen-coated 96-well plates (Greiner Bio-One #655956) at 10,000 cells/well for the cell binding assay and 5,000 cells/well for the cell killing assay. After 24 hours, growth media was replaced with differentiation media (DMEM with 2% horse serum) and placed in a 37° C. incubator with 7.5% CO₂. C2C12 myotubes were assayed after 3 days of differentiation. HEK293/hCACNG1, HEK293/mCACNG1, and HEK293 cells were seeded at 10,000 cells (cell binding assay) or 2,000 (cell killing assay) per well in 96-well black collagen coated plates (Greiner Bio-One, cat #655956) in complete growth media and grown overnight at 37° C. in 5% CO₂.
(§2) Relative binding of anti-CACNG1 antibodies was assessed across the entire panel of cell lines via imaging analysis. […] After one wash with antibody dilution buffer, samples were fixed in CytoFix (BD Biosciences, Cat #554655) diluted 1:1 in PBS and supplemented with a 1:2000 dilution of Hoechst 33342 (Thermo, Cat #H1399) for 20 minutes on ice. Images were acquired with a 10× objective on the Opera Phenix (Perkin Elmer) and relative fluorescence units (RFU) was determined using Harmony software (Perkin Elmer).

[4] = biological target: T3, nanodisc embedded human CACNG1 expressed with a C-terminal PADRE-Flag-His tag (human, UniProt Q06432 1-222); assay: SPR, anti-His-captured nanodisc, 25 C
T3 construct: Captured on an anti-His Biacore surface; also called human CACNG1 nanodisc; CACNG1 nanodisc; not shown: C-terminal tag
T3 sequence (Q06432 whole entry): as above
Description: Equilibrium dissociation constants (KD values) for nanodisc embedded human CACNG1 expressed with a C-terminal […] tag (human CACNG1 nanodisc; concentration 0.82 mg/ml) binding to purified anti-CACNG1 antibodies were determined using a real-time surface plasmon resonance biosensor technology with a Biacore T200 instrument. The CM5 Biacore sensor surface was derivatized by amine coupling with a monoclonal mouse anti-His antibody (Cytiva; Marlborough, MA). All Biacore binding studies were performed in a buffer composed of 0.01M HEPES, 0.15M NaCl, 1 mM CaCl₂, 0.5 mM MgCl₂, pH 7.4 (HBS-N++ running buffer). Different concentrations of anti-CACNG1 antibodies (ranging from 300 nM to 12 nM in 5-fold serial dilutions) prepared in HBS-N++ running buffer were injected over the captured human CACNG1 nanodisc at a flow rate of 30 μL/minute. Antibody association was monitored for 2 minutes while dissociation was monitored in HBS-N++ running buffer for 5 minutes. At the end of each cycle, the human CACNG1 nanodisc capture surface was regenerated using three 10 second injections of 10 mM Gly pH1.5. All binding kinetics experiments were performed at 25° C.
The specific SPR-Biacore sensorgrams were obtained by a double referencing procedure. The double referencing was performed by first subtracting the signal of each injection over a reference surface (anti-His) from the signal over the experimental surface (anti-His captured human CACNG1 nanodisc) thereby removing contributions from refractive index changes. In addition, running buffer injections were performed to allow subtraction of the signal changes resulting from the dissociation of captured antibodies from the coupled anti-His surface. Kinetic association (kₐ) and dissociation ([…]) rate constants were determined by fitting the real-time sensorgrams to a 1:1 binding model using Scrubber v2.0c curve fitting software. Binding dissociation equilibrium constants (KD) and dissociative half-lives (t %) were calculated from the kinetic rate constants as: […]

[5] = biological target: T2, human CACNG1 expressed on cells; assay: imaging cell binding, HEK293/hCACNG1
Description: as §1, §2

[6] = biological target: T2, human CACNG1 expressed on cells; assay: imaging cell binding, HuSKM myotubes
Description: as §1, §2

[7] = biological target: T1, mouse CACNG1 expressed on cells; assay: imaging cell binding, C2C12 mouse myotubes
Description: as §1, §2

Row | Binder | % KILL, indirect cell killing, C2C12 [1] [%] | % KILL, indirect cell killing, HEK293/mCACNG1 [1] [%] | EC50/IC50, indirect cell killing, C2C12 [1] [nM] | EC50/IC50, indirect cell killing, HEK293/mCACNG1 [1] [nM] | % KILL, indirect cell killing, HEK293/hCACNG1 [2] [%] | % KILL, indirect cell killing, HuSKM [2] [%] | EC50/IC50, indirect cell killing, HEK293/hCACNG1 [2] [nM] | EC50/IC50, indirect cell killing, HuSKM [2] [nM] | EC50 [3] [nM] | S/N [3] [fold] | Kd [4] [nM] | koff [4] [s⁻¹] | kon [4] [M⁻¹ s⁻¹] | mAb bound at 300 nM [4] [RU] | t1/2 [4] [min] | EC50 [5] [nM] | S/N [5] [fold] | EC50 [6] [nM] | S/N [6] [fold] | S/N [7] [fold] | also measured
1 | REGN10715 (antibody, human IgG4 S228P, kappa, hIgG4) heavy: not shown light: DIQMTQSPSSVSTSVGDRVTISCRASQDIRKWLAWYQQKPGKAPKLLIYATSSLQSGVPSRFSGSGSGTDFTLTISSLQPEDFATYFCQQANSFPFTFGQGTKLEIKRTVAAPSVFIFPPSDEQLKSGTASVVCLLNNFYPREAKVQWKVDNALQSGNSQESVTEQDSKDSTYSLSSTLTLSKADYEKHKVYACEVTHQGLSSPVTKSFNRGEC | 99.8 | 96.1 | 0.00469 | 0.000187 | 96.4 | 99.6 | 0.000629 | 0.0097 | 0.26 | 69.4 | 1.98 | 0.000301 | 152000 | 31 | 38.4 | 2.7 | 91.3 | 0.2 | 1060 | 8.4 | EC50 [7]: 2.3 nM
2 | H2aM31944N (antibody, mouse IgG2a, kappa, V domains shown, mIgG2a; also called CACNG1 mIgG2a antibody) VH: QVQLVESGGGVVQPGRSLRLSCEASGITFRNYGMHWVRQAPGKGLEWVAVMWYDGSNKYYADSVKGRFTISRDNSKNTVYLQMNSLRAEDTAVYYCARRGHIATAAPFDYWGQGTLVTVSS VL: DIQMTQSPSSLSASVGDRVTISCRASQSISSYLNWYQQKPGKAPKVLMYAASSLQSGVPSRFSGSGSGTDFTLTISSLQPEDFATYYCQQSYSTPPITFGQGTRLEIKR | 0 | 4.3 | > 10 | > 1 | 95.7 | 98.6 | 0.000356 | 0.0116 | > 100 | 2.2 | 17.1 | 0.00395 | 231000 | 16 | 2.9 | 3.3 | 93.4 | 0.48 | 321 | 0.7 | 
3 | H2aM31941N (antibody, mouse IgG1, kappa, V domains shown, Both names are treated as one molecule; also called H1M31941N; lot H1M31941N-L1) VH: QVQLVQSGAEVKKPGASVKVSCKASGYAFTTYGITWVRQAPGQGLEWMGWISAYNGNTNYAEKVQGRFTMTTDTSTNTAYMELRSLRSDDTAVYFCARKGHYGSGTYYNPFGFDFWGQGTMVTVSS VL: EIMLMQSPGTLSLSPGERATLSCRASQSVSSSYLAWYQQKPGQAPRLLIYGASSRATDIPDRFSGSGSGTDFTLTISRLEPEDFAVYFCQQYYGSPWTFGQGTKVEIKR | 0.4 | 4.9 | > 10 | > 1 | 95.4 | 91.2 | 0.00217 | 0.112 |  | 1.4 | 1.19 | 0.000406 | 342000 | 19 | 28.4 | 0.21 | 51.2 | 0.13 | 559 | 1.2 | binding result [7]: no binding (tested: 100 nM highest tested)
4 | REGN10713 (antibody, human IgG4 S228P, lambda, hIgG4) heavy: not shown light: QSVLTQPPSVSAAPGQKVTISCSGSSSNIGNNYVSWYQQLPGTAPKLLIYDNNKRPSGIPDRFSGSKSGTSATLGITGLQTGDEADYYCGTWDLSLSFNWVFGGGTKLTVLGQPKAAPSVTLFPPSSEELQANKATLVCLISDFYPGAVTVAWKADSSPVKAGVETTTPSKQSNNKYAASSYLSLTPEQWKSHRSYSCQVTHEGSTVEKTVAPTECS | 0 | 2.4 | > 10 | > 1 |  |  |  |  | > 100 | 2.7 | 0.635 | 4.72e-05 | 74200 | 53 | 245 |  |  |  |  | 2 | 
5 | REGN7660 (antibody, human IgG4 S228P, kappa, V domains shown, hIgG4) VH: EVQLVESGGGLVQPGGSLKLSCTASGLTLSDSAMHWVRQASGKGLEWVGRIRNKANRYATEYAASVKGRFTISRDDSKNTAYLQMNSLKTEDTAVYYCTRNWKIFLFDYWGQGTLVTVSS VL: EIVLTQSPGTLTLSPGERATLSCRASQSVGSKYLAWFQQKRGQAPRLLIYGASSRTSGIPDRISGSGSGTDFTLTISRLEPEDFAVYYCQQYGSSPWTFGQGTKVEIKR | 99.8 | 92.3 | 0.0237 | 0.0134 |  |  |  |  | > 100 | 7.2 | 12.6 | 0.0243 | 1.93e+06 | 23 | 0.5 |  |  |  |  | 1 | 
6 | REGN10728 (antibody, human IgG4 S228P, kappa, also called H2aM31929N/REGN10728; CACNG1 hIgG4 uber stealth antibody) heavy: QVQLVESGGGVVQPGRSLRLSCTASGITFRNYGMHWVRQAPGKGLEWVAVMWYDGSNKYYADSVKGRFTISGDNSKVYLQMNSLRAEDTAVYYCARRGTIRTAAPFDYWGQGTLVTVSSASTKGPSVFPLAPCSRSTSESTAALGCLVKDYFPEPVTVSWNSGALTSGVHTFPAVLQSSGLYSLSSVVTVPSSSLGTKTYTCNVDHKPSNTKVDKRVESKYGPPCPPCPAPGGGGPSVFLFPPKPKDTLMISRTPEVTCVVVDVSQEDPEVQFNWYVDGVEVHNAKTKPREEQFNSTYRVVSVLTVLHQDWLNGKEYKCKVSNKGLPSSIEKTISKAKGQPREPQVYTLPPSQEEMTKNQVSLTCLVKGFYPSDIAVEWESNGQPENNYKTTPPVLDSDGSFFLYSRLTVDKSRWQEGNVFSCSVMHEALHNHYTQKSLSLSLGK light: not shown | 1.6 | 5.1 | > 10 | > 1 | 95.8 | 99.3 | 0.000519 | 0.0381 |  | 0.8 |  |  |  |  |  | 2.4 | 138 | 1.3 | 467 | 1.8 | binding result [7]: no binding (tested: 100 nM highest tested)

From patent publication US20240182561A1 (Regeneron, published 2024)
